We go through one molecule from paper PMC5614898.

Usually Kd stands for the constant that tells how readily two partners part at equilibrium. A higher Kd goes with a looser complex.

The series concerns the target T1, FOXA2-DBD without wing 2 (human, UniProt Q9Y261 157-239).
T1 sequence: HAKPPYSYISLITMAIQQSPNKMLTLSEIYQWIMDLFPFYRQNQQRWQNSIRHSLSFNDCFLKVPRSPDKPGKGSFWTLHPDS
Put plainly: ITC.

B1: DBE2 (Daf-16 family binding element 2) (dsDNA)
DNA 1: TGCAAAATGTAAACAAGACT
DNA 2: AGTCTTGTTTACATTTTGCA
On to B1, for which binding was put at a Kd of 3.5 ± 0.3 µM.
